Assay results: paper PMC7786401

Columns and labels:
[1] = target: angiotensin II type 1 receptor I103T-A244S (human) (UniProt P30556)
[2] = target: angiotensin II type 1 receptor I103T (human) (UniProt P30556)
[3] = target: angiotensin II type 1 receptor, wild type (human) (UniProt P30556)
[4] = target: angiotensin II type 1 receptor A244S (human) (UniProt P30556)

Chain of βarrestin2-RlucII (P32121 whole entry): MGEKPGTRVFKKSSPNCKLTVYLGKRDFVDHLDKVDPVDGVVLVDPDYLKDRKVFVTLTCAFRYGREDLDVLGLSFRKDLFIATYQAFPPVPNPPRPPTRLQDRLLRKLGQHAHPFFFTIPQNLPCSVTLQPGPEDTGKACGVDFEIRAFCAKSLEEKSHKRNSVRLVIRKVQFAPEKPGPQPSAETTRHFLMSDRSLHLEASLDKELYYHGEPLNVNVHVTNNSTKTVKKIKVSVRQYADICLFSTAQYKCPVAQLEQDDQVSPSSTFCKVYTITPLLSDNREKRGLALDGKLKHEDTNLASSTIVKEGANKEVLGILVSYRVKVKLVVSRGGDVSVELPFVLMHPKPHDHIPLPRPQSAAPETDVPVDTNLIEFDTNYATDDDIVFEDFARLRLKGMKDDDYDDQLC

- AngII-stimulated β-arrestin 2 recruitment to the membrane (BRET2 between βarrestin2-RlucII and rGFP-CaaX), Emax (% WT) [1]: 50 % WT
- AngII-stimulated β-arrestin 2 recruitment to the membrane (BRET2 between βarrestin2-RlucII and rGFP-CaaX), pEC50 of AngII [1]: 8.5
- AngII-stimulated β-arrestin 2 recruitment to the membrane (BRET2 between βarrestin2-RlucII and rGFP-CaaX), Emax (% WT) [2]: 97 % WT
- AngII-stimulated β-arrestin 2 recruitment to the membrane (BRET2 between βarrestin2-RlucII and rGFP-CaaX), pEC50 of AngII [2]: 8.54
- AngII-stimulated β-arrestin 2 recruitment to the membrane (BRET2 between βarrestin2-RlucII and rGFP-CaaX), pEC50 of AngII [3]: 8.49
- AngII-stimulated β-arrestin 2 recruitment to the membrane (BRET2 between βarrestin2-RlucII and rGFP-CaaX), Emax (% WT) [4]: 106 % WT
- AngII-stimulated β-arrestin 2 recruitment to the membrane (BRET2 between βarrestin2-RlucII and rGFP-CaaX), pEC50 of AngII [4]: 8.68
Substance: βarrestin2-RlucII (from UniProt P32121 1-409) (natural protein)
